The experiment addresses T1, Angiotensin converting enzyme 2 (mouse (endogenous in primary brain …, UniProt Q8R0I0 18-805)).
T1 construct: Angiotensin converting enzyme 2 (ACE2), type I membrane glycoprotein; endogenous in mouse brain microvascular endothelial cells; also called ACE2; ACE2 receptor; source: endogenous, mouse primary brain microvascular endothelial cells (C57BL/6 control; db/db diabetic), in lysate
Description: co-IP; ACE2 antibody (2 ug) with 150 ug lysate of control endothelial cells treated with Spike; Catch and Release spin columns, 18 h at 4 C; blots probed for Rab5a. The note with it: partners not purified.

T1 sequence (Q8R0I0 18-805): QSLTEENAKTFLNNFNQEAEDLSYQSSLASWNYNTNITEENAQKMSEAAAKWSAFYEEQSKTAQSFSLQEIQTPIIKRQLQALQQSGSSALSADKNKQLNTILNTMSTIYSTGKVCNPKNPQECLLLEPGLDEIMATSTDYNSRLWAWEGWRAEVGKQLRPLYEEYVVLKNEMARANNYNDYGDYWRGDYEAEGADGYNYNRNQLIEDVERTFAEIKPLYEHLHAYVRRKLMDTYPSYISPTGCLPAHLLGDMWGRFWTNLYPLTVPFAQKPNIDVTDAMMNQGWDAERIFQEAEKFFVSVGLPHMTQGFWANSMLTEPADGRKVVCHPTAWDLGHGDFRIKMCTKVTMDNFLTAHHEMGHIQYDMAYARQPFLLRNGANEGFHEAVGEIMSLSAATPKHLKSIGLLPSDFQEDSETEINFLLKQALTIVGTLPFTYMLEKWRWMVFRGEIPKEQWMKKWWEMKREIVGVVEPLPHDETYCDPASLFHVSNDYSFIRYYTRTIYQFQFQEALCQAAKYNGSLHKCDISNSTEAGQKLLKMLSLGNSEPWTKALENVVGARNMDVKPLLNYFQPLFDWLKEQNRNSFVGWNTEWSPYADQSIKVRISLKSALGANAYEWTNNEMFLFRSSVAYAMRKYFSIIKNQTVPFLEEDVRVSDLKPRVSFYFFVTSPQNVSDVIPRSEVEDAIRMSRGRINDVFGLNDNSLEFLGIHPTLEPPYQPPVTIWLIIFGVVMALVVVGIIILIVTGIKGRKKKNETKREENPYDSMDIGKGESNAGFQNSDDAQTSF

B1: Rab5a (natural protein, UniProt Q9CQD1 1-215, looked up)
chain: MANRGATRPNGPNTGNKICQFKLVLLGESAVGKSSLVLRFVKGQFHEFQESTIGAAFLTQTVCLDDTTVKFEIWDTAGQERYHSLAPMYYRGAQAAIVVYDITNEESFARAKNWVKELQRQASPNIVIALSGNKADLANKRAVDFQEAQSYADDNSLLFMETSAKTSMNVNEIFMAIAKKLPKNEPQNPGANSARGRGVDLTEPAQPARSQCCSN
notes: Rab5a, Rab GTPase of the endolysosomal trafficking pathway; endogenous in mouse brain microvascular endothelial cells; source: endogenous, mouse primary brain microvascular endothelial cells (C57BL/6 control; db/db diabetic), in lysate
As for B1, the “fold change of association with ACE2, Spike-treated against untreated cells” value was found to be 2 fold.

Source of the values: publication PMC8225996 (Frontiers in Cardiovascular Medicine, 2021).
